The supplement of paper PMC10724198
± gives the standard deviation of the averaged measurements.

Tested on: Saccharomyces cerevisiae
Assay: protein stability index of tFT-peptide fusion (C-terminal peptide) (PSI (0-1 scale)); higher = more stable (slower turnover)
Details: genetic background: wild type; temperature: 30 C
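Further: PSI is a weighted mean of sequencing reads over stability bins, variants kept only with over 10 reads, mCherry proximal and sfGFP distal, peptide attached via GGGS linker.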

In order of rising protein stability index:
1. KYFCSLAFFLFA  0.502 ± 0.0073
2. VALVCFAAGWLW  0.507 ± 0.037
3. PAPHPPIPHQPP  0.532 ± 0.023
4. FLLLSPARLVLL  0.5529 ± 0.0021
5. PLRVDLTHQQWS  0.574 ± 0.11
6. CSMSGPLIIIAR  0.58339 ± 0.00021
7. PPPPPPPPLPPP  0.5856 ± 0.0041
8. GVIRGNRLELIV  0.618 ± 0.025
9. SPPPPQEADYVV  0.62 ± 0.026
10. GLVDARRRWCFS  0.62 ± 0.0073
11. FLISSGPSVSVL  0.623 ± 0.026
12. SLLPLSTPPASP  0.624 ± 0.0079
13. GGWWSCAWGVRG  0.627 ± 0.065
14. YPPLSYSFCHRP  0.637 ± 0.072
15. WWEGSFRVGAVR  0.638 ± 0.008
16. SMASQLSQRGSD  0.641 ± 0.076
17. PASGHLPPPLSP  0.641 ± 0.064
18. GVVVLGRRMGAG  0.6441 ± 0.0049
19. PLRVATTLGYPL  0.649 ± 0.081
20. HHVDLHLSLPSP  0.649 ± 0.032
21. CGRITADKRILL  0.65 ± 0.098
22. RSSSGANLQTTL  0.6517 ± 0.0031
23. DVFVFHVLKKYP  0.654 ± 0.025
24. PSPPPPPPTPAS  0.655 ± 0.024
25. GGLGVAGAGVVC  0.655 ± 0.042
26. RRRPNSSMYRVS  0.658 ± 0.015
27. RQLPMHLTSPGT  0.66 ± 0.021
28. PESPNCRRTRAL  0.661 ± 0.031
29. PPGPLPPLSSTP  0.661 ± 0.034
30. ILVHFQGVHTVL  0.663 ± 0.018
31. IPRRMFNIRKKR  0.666 ± 0.036
32. RKLDRDLTPESF  0.666 ± 0.048
33. WVVLGGRSGCGA  0.667 ± 0.053
34. YSTYGGGYFMAF  0.668 ± 0.031
35. VLSDFSFPFFVL  0.669 ± 0.017
36. YREIVKQTENKR  0.673 ± 0.0083
37. VQMKVKKRLNEW  0.6744 ± 0.0046
38. VSHVRVNESAAN  0.677 ± 0.0078
39. CGSWVAVESLEL  0.679 ± 0.042
40. AGISSLLVQSVP  0.679 ± 0.049
41. PPPPPPATPPPS  0.681 ± 0.045
42. DSRPLASAVRLS  0.681 ± 0.017
43. LFVMGSACPLRI  0.681 ± 0.029
44. LEGGWRVGGGRL  0.683 ± 0.015
45. VGGCLFQLSSGY  0.683 ± 0.035
46. NAYRLSCGDNTN  0.683 ± 0.027
47. RDLRGGIADSAG  0.684 ± 0.086
48. EMNKGKREKKGE  0.684 ± 0.084
49. PVCDPCSKATLL  0.687 ± 0.015
50. GGWCWGWGPGSG  0.687 ± 0.056
51. PVGFPLPCPFFT  0.688 ± 0.035
52. AQPFATTGGGLV  0.69 ± 0.24
53. PPVTAPPPPLRS  0.692 ± 0.014
54. PLPVRPGQHRIL  0.6918 ± 0.0024
55. ISIRKNSNQETM  0.692 ± 0.14
56. FGQERLHMSILF  0.692 ± 0.029
57. ADKIPHSDNRSR  0.697 ± 0.01
58. GGGGGGSRVWSA  0.698 ± 0.083
59. TGDFFGGLGTWS  0.701 ± 0.016
60. KFKAYNIKKWKE  0.702 ± 0.03
61. GVPQEGHGLEGY  0.7045 ± 0.00013
62. QKISEKNISEKN  0.7063 ± 0.0013
63. RLRRCPWLRAWR  0.7086 ± 0.005
64. FWGCCGGVGPRG  0.709 ± 0.0077
65. DFVSQFSFQFGC  0.713 ± 0.066
66. PPRVPCLVPKSR  0.715 ± 0.014
67. GGVVVRGRASAR  0.717 ± 0.02
68. RSYGVGYEGDKG  0.719 ± 0.054
69. GSGAQVERCRWE  0.719 ± 0.02
70. GVSAKVRRETVR  0.725 ± 0.078
71. NFRHSVTTSEVN  0.737 ± 0.013
72. TRRVPNSRTGTI  0.74 ± 0.072
73. QPLPLPSPPPPA  0.741 ± 0.058
74. VIYERDSLRGGI  0.753 ± 0.038
75. LVGIYYEHPISP  0.754 ± 0.13
76. FALCLPPPSPPA  0.761 ± 0.026
77. VGGGRFCGCLVV  0.767 ± 0.015
78. LPSPSGSPVPFL  0.771 ± 0.041
79. WSGDLRNIEFAR  0.816 ± 0.1
80. FSGGPSTPPTWS  0.817 ± 0.01
81. VEGISKMTRINP  0.8698 ± 0.0057
